{"source": "paper PMC10200060", "about": "“Inhibition of DAMP actions in the tumoral microenvironment using lactoferrin-glycyrrhizin conjugate for glioblastoma therapy” (Biomaterials Research, 2023)", "molecules": {"B1": {"name": "Lf-GL: lactoferrin-glycyrrhizin conjugate with ligation ratio Lf:GL 1:10, used in further experiments (conjugate, UniProt P24627 20-708, looked up)", "Lactotransferrin": "APRKNVRWCTISQPEWFKCRRWQWRMKKLGAPSITCVRRAFALECIRAIAEKKADAVTLDGGMVFEAGRDPYKLRPVAAEIYGTKESPQTHYYAVAVVKKGSNFQLDQLQGRKSCHTGLGRSAGWIIPMGILRPYLSWTESLEPLQGAVAKFFSASCVPCIDRQAYPNLCQLCKGEGENQCACSSREPYFGYSGAFKCLQDGAGDVAFVKETTVFENLPEKADRDQYELLCLNNSRAPVDAFKECHLAQVPSHAVVARSVDGKEDLIWKLLSKAQEKFGKNKSRSFQLFGSPPGQRDLLFKDSALGFLRIPSKVDSALYLGSRYLTTLKNLRETAEEVKARYTRVVWCAVGPEEQKKCQQWSQQSGQNVTCATASTTDDCIVLVLKGEADALNLDGGYIYTAGKCGLVPVLAENRKSSKHSSLDCVLRPTEGYLAVAVVKKANEGLTWNSLKDKKSCHTAVDRTAGWNIPMGLIVNQTGSCAFDEFFSQSCAPGADPKSRLCALCAGDDQGLDKCVPNSKEKYYGYTGAFRCLAEDVGDVAFVKNDTVWENTNGESTADWAKNLNREDFRLLCLDGTRKPVTEAQSCHLAVAPNHAVVSRSDRAAHVKQVLLHQQALFGKNGKNCPDKFCLFKSETKNLLFNDNTECLAKLGGRPTYEEYLGTEYVTAIANLKKCSTSPLLEACAFLTR", "modifications": "glycyrrhizin conjugate"}}, "key": {"[1]": {"target": "T1, human recombinant HMGB1 protein (Homo sapiens, UniProt P09429)", "T1 construct": "purchased Abcam", "T1 sequence (P09429 1-215)": "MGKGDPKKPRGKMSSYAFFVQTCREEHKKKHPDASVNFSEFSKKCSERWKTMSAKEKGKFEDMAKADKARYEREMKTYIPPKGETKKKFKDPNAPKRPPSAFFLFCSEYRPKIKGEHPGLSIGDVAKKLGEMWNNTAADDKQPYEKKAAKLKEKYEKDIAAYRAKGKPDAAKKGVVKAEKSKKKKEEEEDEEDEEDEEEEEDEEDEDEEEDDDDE", "test": "SPR binding affinity against HMGB1", "experimental": "To confirm the binding affinity of Lf-GL to HMGB1, Surface Plasmon Resonance (SPR) was conducted at WoojungBSC (Korea). The Reichert SR7500DC system (Reichert technologies, NA, USA) and Scrubber2 software (Biologic software, FRA) were used, and a CMDH chip (Cat #: 13,206,066, Reichert technologies) was used for immobilization of the human recombinant HMGB1 protein (Abcam). HMGB1 protein was used as a ligand, and the analytes were HMGB1 antibody (Abcam), GL, Lf and Lf-GL conjugate. The immobilization buffer was S.A. (10 × 10^–3 M, pH 4.5), and the running buffer was PBS (pH 7.4). The flow rate of the analyte was 30 μL min^−1. The association and dissociation time were 3 min each, and measurements were conducted at room temperature. Results are expressed in response units (RU) over time.\nFig. S5. Binding affinity against HMGB1. Surface Plasmon Resonance (SPR) was conducted at WoojungBSC (Korea). The Reichert SR7500DC system (Reichert technologies, NA, USA) and Scrubber2 software(Biologic software, FRA) were used and the CMDH chip (Cat #: 13206066, Reichert technologies) was used for immobilization of the human recombinant HMGB1 protein (Abcam). HMGB1 protein was used as ligand and analytes were HMGB1 antibody (Abcam), GL, Lf and Lf-GL conjugate. Immobilization buffer was 10 mM S.A. (pH 4.5) and running buffer was 1× PBS. The flow rate of the analyte was 30 μL min^-1. The association and dissociation time were 3 min each and conducted at room temperature. Results are expressed in response units (RU) over time."}, "U87MG": {"tested_on": "U87MG", "test": "Annexin V/PI apoptosis staining in U87MG", "type": "cell-based, human", "conditions": "GL equivalent 50 µM, 24 h (control 1.40%)", "experimental": "Fig. S10. Non-apoptotic U87MG growth inhibition of Lf-GL. Annexin V-DY-634 / PI apoptosis staining to detect the apoptosis and necrosis in the Control, GL, Lf, and Lf-GL treated group at all GL equivalent concentration of 50 µM for 24 h. However, the cell population of annexin V (+)/PI (+) in the Lf-GL treatment group was 0.28%, which was even lower level to 1.40% in the Control group"}, "rat aortic rings": {"tested_on": "rat aortic rings", "test": "Aorta ring assay (ex vivo)", "conditions": "VEGF-conditioned medium, GL equivalent 200 µM, 14 days", "experimental": "An aorta ring assay was conducted to confirm the anti-angiogenesis effect of Lf-GL ex vivo. A 48-well plate was coated with of Matrigel® (100 μL) and was incubated for 30 min or more in 37℃ incubators. In the meantime, thoracic aortas of 7-week-old male SD rats were excised. Then, the fat layer and outer membrane were removed, and rings approximately 1 mm in length were prepared. The prepared aortic rings were seeded on a coated Matrigel® of 48-well plate and were covered with Matrigel®. (100 μL) Subsequently, the aortic ring was treated with a control (with or without 25 ng mL^−1 of VEGF) or different concentrations of Lf-GL complex. Medium was changed once every two days. Fourteen days after treatment, optical images of sprouting microvessels were obtained using microscopy magnification (× 40 or × 100). Sprouting microvessel area was quantified using Image J and Sigma Plot.\nFig. S14. Significant inhibitory effect of Lf-GL in aortic ring angiogenesis. Optical images of vessel regression in aortic ring with Lf-GL treatment. Aortic ring assay was carried out in 48-well plate coated with Matrigel. VEGF-non treated control represents that aortic ring incubated with normal medium. VEGF-treated control represents that aortic ring incubated with 25 ng mL^-1 VEGF-conditioned medium. […]"}, "HUVEC": {"tested_on": "HUVEC", "test": "HUVEC co-cultured with U87MG: CCK-8 at basal chamber", "type": "cell-based, human", "conditions": "HUVEC/U87MG Transwell co-culture, 100 μM GL equivalent, 24 h", "experimental": "(§1) To evaluate the inhibitory effect of Lf-GL on neovascularization in the tumor microenvironment in vitro, U87MG cells were seeded in the Transwell® insert chambers that were 6.5 mm in diameter and had 0.4 μm pore sizes (seeding density: 2.5 × 10^4 cells per well, Corning). HUVECs were seeded in the Transwell basal chamber (seeding density: 5.0 × 10^4 cells per well). GL, Lf, or Lf-GL (100 × 10^–6 M of GL equivalent concentration) were added to the insert chamber, and cells were incubated for 24 h. CCK-8 assay and HMGB1 ELISA were conducted at the basal chamber."}, "HMGB1": {"tested_on": "HMGB1", "test": "HUVEC co-cultured with U87MG: HMGB1 ELISA", "type": "cell-based, human", "conditions": "HUVEC/U87MG co-culture, 100 μM GL equivalent, 24 h (control 217.8 ± 5.9)", "experimental": "as §1"}, "[2]": {"tested_on": "orthotopic GBM (U87MG) mice model", "test": "Nissl staining: GBM/normal brain ratio", "type": "in vivo, Balb/c nude mice", "conditions": "daily i.v. GL equivalent 50 mg kg^−1, 14 days (control 37.5 ± 2.3)", "description": "After two weeks, mice were sacrificed, and the brains were harvested and fixed with paraformaldehyde (4%). Then, tissue processing was automatically conducted using a Leica TP1020 semi-enclosed Benchtop Tissue Processor (Leica Biosystems, Wetzlar, Hesse, Germany), followed by embedding in paraffin blocks. Paraffin blocks were sliced into 5 μm thick slices using a Leica RM2145 Microtome (Leica Biosystems). Nissl staining was used to stain brain tissue slides with pre-warmed 0.1% Cresyl Violet Stain Solution (Abcam). TUNEL assays were conducted following the manufacturer’s instructions. For immunofluorescence staining; anti-HMGB1 antibody (Abcam), anti-Ki67 antibody (Abcam), anti-CD31 antibody (Abcam), and anti-VEGF antibody (Abcam) were used as primary antibodies, and goat anti-rabbit IgG-H&L Alexa Fluor 488 and goat anti-rabbit IgG H&L Alexa Fluor 647 were used as secondary antibodies, followed by DAPI mounting."}, "[3]": {"conditions": "mouse, in vivo, iv"}, "[4]": {"test": "In vivo pharmacokinetics study", "conditions": "mice, i.v."}, "[5]": {"conditions": "SPR, HMGB1 immobilized, PBS pH 7.4, room temperature"}, "[6]": {"conditions": "GL equivalent 50 mg kg^−1, plasma"}}, "data": [{"molecule": "B1", "values": [{"measurement": "KD, equilibrium dissociation constant (KD = Kd Ka^−1)", "setting": "[1]; SPR, HMGB1 immobilized", "value": "23.1 ± 0.1", "unit": "nM"}, {"measurement": "Ka, association rate constant", "setting": "[1]; [5]", "value": "(2.64±0.01)·10^4 M^-1s^-1"}, {"measurement": "Kd, dissociation rate constant", "setting": "[1]; [5]", "value": "(3.11±0.02)·10^-4 M^-1s^-1"}, {"measurement": "Affinity for HMGB1 higher than that of HMGB1 antibody", "setting": "[1]; ratio of KD values", "value": 45, "unit": "fold"}, {"measurement": "Annexin V (+)/PI (+) cell population", "setting": "U87MG", "value": 0.28, "unit": "%"}, {"measurement": "Decrease of sprouted area of the micro-vessel", "setting": "rat aortic rings", "value": "80.2 ± 4.5", "unit": "%"}, {"measurement": "Reduction of endothelial cell proliferation", "setting": "HUVEC", "value": "13.0 ± 0.7", "unit": "%"}, {"measurement": "HMGB1 level in medium", "setting": "HMGB1", "value": "176.1 ± 4.9", "unit": "ng/mL"}, {"measurement": "GBM/normal brain ratio", "setting": "[2]", "value": "8.9 ± 3.2"}, {"measurement": "Time after administration until cleared from / remaining in circulation", "setting": "[3]", "value": 720, "unit": "min"}, {"measurement": "T1/2, elimination half-life", "setting": "[3]; 50 mg/kg", "value": "5.3 ± 0.4", "unit": "min"}, {"measurement": "Increase of AUClast versus free GL", "setting": "[4]; GL equivalent 50 mg kg^−1", "value": "tenfold"}, {"measurement": "Cmax", "setting": "[4]; [6]", "value": "270.98 ± 130.92", "unit": "μg/㎖"}, {"measurement": "MRT, mean retention time", "setting": "[4]; [6]", "value": "3.4 ± 0.8", "unit": "min"}, {"measurement": "Tmax", "setting": "[4]; [6]", "value": 1, "unit": "min"}]}]}
